# US20210364527A1
# T1: N-terminal leucine peptide …
# T1 sequence (peptide): LAAIAAFAADDDW
# B1: Planctomycetia bacterium ClpS homolog (PS557) (protein)
# chain: MPTAASATESAIEDTPAPARPEVDGRTKPKRQPRYHVVLWNDDDHTYQYVVVMLQSLFGHPPERGYRLAKEVDTQGRVIVLTTTREHAELKRDQIHAFGYDRLLARSKGSMKASIEAEE
# B2: PS705 (atClpS2-V1-SNAP TAG fusion 2) (designed binder)
# chain: MSDSPVDLKPKPKVKPKLERPKLYKVMLLNDDYTPMSFVTVVLKAVFRMSEDTGRRVMMTAHRFGSAVVVVCERDIAETKAKEATDLGKEAGFPLMFTTEPEEHHHHHHHHHHGGGSGGGSGGGSGLNDFFEAQKIEWHEGGGSGGGSGGGSGLNDFFEAQKIEWHEGSAGSAAGSGEFMDKDCEMKRTTLDSPLGKLELSGCEQGLHEIKLLGKGTSAADAVEVPAPAAVLGGPEPLMQATAWLNAYFHQPEAIEEFPVPALHHPVFQQESFTRQVLWKLLKVVKFGEVISYQQLAALAGNPAATAAVKTALSGNPVPILIPCHRVVSSSGAVGGYEGGLAVKEWLLAHEGHRLGKPGLG
# B3: PS698 (PS557-SNAP TAG fusion 2) (designed binder)
# chain: MPTAASATESAIEDTPAPARPEVDGRTKPKRQPRYHVVLWNDDDHTYQYVVVMLQSLFGHPPERGYRLAKEVDTQGRVIVLTTTREHAELKRDQIHAFGYDRLLARSKGSMKASIEAEEHHHHHHHHHHGGGSGGGSGGGSGLNDFFEAQKIEWHEGGGSGGGSGGGSGLNDFFEAQKIEWHEGSAGSAAGSGEFMDKDCEMKRTTLDSPLGKLELSGCEQGLHEIKLLGKGTSAADAVEVPAPAAVLGGPEPLMQATAWLNAYFHQPEAIEEFPVPALHHPVFQQESFTRQVLWKLLKVVKFGEVISYQQLAALAGNPAATAAVKTALSGNPVPILIPCHRVVSSSGAVGGYEGGLAVKEWLLAHEGHRLGKPGLG
# B4: H. sapiens Fyn SH2 domain triple mutant superbinder (designed binder)
# chain: MGAMDSIQAEEWYFGKLGRKDAERQLLSFGNPRGTFLIRESETVKGAYALSIRDWDDMKGDHVKHYLIRKLDNGGYYITTRAQFETLQQLVQHYSERAAGLSSRLVVPSHK
# B5: PS704 (atClpS2-V1-2xSNAP TAG fusion) (designed binder)
# chain: MSDSPVDLKPKPKVKPKLERPKLYKVMLLNDDYTPMSFVTVVLKAVFRMSEDTGRRVMMTAHRFGSAVVVVCERDIAETKAKEATDLGKEAGFPLMFTTEPEEGSAGSAAGSGEFMDKDCEMKRTTLDSPLGKLELSGCEQGLHEIKLLGKGTSAADAVEVPAPAAVLGGPEPLMQATAWLNAYFHQPEAIEEFPVPALHHPVFQQESFTRQVLWKLLKVVKFGEVISYQQLAALAGNPAATAAVKTALSGNPVPILIPCHRVVSSSGAVGGYEGGLAVKEWLLAHEGHRLGKPGLGMDKDCEMKRTTLDSPLGKLELSGCEQGLHEIKLLGKGTSAADAVEVPAPAAVLGGPEPLMQATAWLNAYFHQPEAIEEFPVPALHHPVFQQESFTRQVLWKLLKVVKFGEVISYQQLAALAGNPAATAAVKTALSGNPVPILIPCHRVVSSSGAVGGYEGGLAVKEWLLAHEGHRLGKPGLGGSAGSAAGSGEFHHHHHHHHHHGGGSGGGSGGGSGLNDFFEAQKIEWHEGGGSGGGSGGGSGLNDFFEAQKIEWHE
# B6: PS706 (atClpS2-V1-EF fusion) (designed binder)
# chain: MSDSPVDLKPKPKVKPKLERPKLYKVMLLNDDYTPMSFVTVVLKAVFRMSEDTGRRVMMTAHRFGSAVVVVCERDIAETKAKEATDLGKEAGFPLMFTTEPEEGSAGSAAGSGEFMIKKYTGDFETTTDLNDCRVWSWGVCDIDNVDNITFGLEIDSFFEWCEMQGSTDIYFHDEKFDGEFMLSWLFKNGFKWCKEAKEERTFSTLISNMGQWYALEICWNVKCTTTKTGKTKKEKQRTIIYDSLKKYPFPVKEIAEAFNFPIKKGEIDYTKERPIGYNPTDDEWDYLKNDIQIMAMALKIQFDQGLTRMTRGSDALGDYQDWVKTTYGKSRFKQWFPVLSLGFDKDLRKAYKGGFTWVNKVFQGKEIGEGIVFDVNSLYPSQMYVRPLPYGTPLFYEGEYKENIDYPLYIQNIKVRFRLKERHIPTIQVKQSSLFIQNEYLESSVNKLGVDELIDLTLTNVDLDLFFEHYDILEIHYTYGYMFKASCDMFKGWIDKWIEVKNTTEGARKANAKGMLNSLYGKFGTNPDITGKVPYMGEDGIVRLTLGEEELRDPVYVPLASFVTAWGRYTTITTAQRCFDNIIYCDTDSIHLTGTEVPEAIEHLVDSKKLGYWKHESTFQRAKFIRQKTYVEEIDGELNVKCAGMPDRIKELVTFDNFEVGFSSYGKLLPKRTQGGVVLVDTMFTIKGSAGSAAGSGEFHHHHHHHHHHGGGSGGGSGGGSGLNDFFEAQKIEWHEGGGSGGGSGGGSGLNDFFEAQKIEWHE
# B7: PS372 (ClpS homolog) (protein)
# chain: MAFPARGKTAPKNEVRRQPPYNVILLNDDDHTYRYVIEMLQKIFGFPPEKGFQIAEEVDRTGRVILLTTSKEHAELKQDQVHSYGPDPYLGRPCSGSMTCVIEPAV
# B8: PS703 (atClpS2-V1-SNAP TAG fusion) (designed binder)
# chain: MSDSPVDLKPKPKVKPKLERPKLYKVMLLNDDYTPMSFVTVVLKAVFRMSEDTGRRVMMTAHRFGSAVVVVCERDIAETKAKEATDLGKEAGFPLMFTTEPEEGSAGSAAGSGEFMDKDCEMKRTTLDSPLGKLELSGCEQGLHEIKLLGKGTSAADAVEVPAPAAVLGGPEPLMQATAWLNAYFHQPEAIEEFPVPALHHPVFQQESFTRQVLWKLLKVVKFGEVISYQQLAALAGNPAATAAVKTALSGNPVPILIPCHRVVSSSGAVGGYEGGLAVKEWLLAHEGHRLGKPGLGGSAGSAAGSGEFHHHHHHHHHHGGGSGGGSGGGSGLNDFFEAQKIEWHEGGGSGGGSGGGSGLNDFFEAQKIEWHE
# B9: Agrobacterium tumifaciens ClpS1 (atClpS1) (protein)
# chain: MIAEPICMQGEGDGEDGGTNRGTSVITRVKPKTKRPNLYRVLLLNDDYTPMEFVIHILERFFQKDREAATRIMLHVHQHGVGECGVFTYEVAETKVSQVMDFARQHQHPLQCVMEKK
# B10: PS696 (PS557-SNAP TAG fusion) (designed binder)
# chain: MPTAASATESAIEDTPAPARPEVDGRTKPKRQPRYHVVLWNDDDHTYQYVVVMLQSLFGHPPERGYRLAKEVDTQGRVIVLTTTREHAELKRDQIHAFGYDRLLARSKGSMKASIEAEEGSAGSAAGSGEFMDKDCEMKRTTLDSPLGKLELSGCEQGLHEIKLLGKGTSAADAVEVPAPAAVLGGPEPLMQATAWLNAYFHQPEAIEEFPVPALHHPVFQQESFTRQVLWKLLKVVKFGEVISYQQLAALAGNPAATAAVKTALSGNPVPILIPCHRVVSSSGAVGGYEGGLAVKEWLLAHEGHRLGKPGLGGSAGSAAGSGEFHHHHHHHHHHGGGSGGGSGGGSGLNDFFEAQKIEWHEGGGSGGGSGGGSGLNDFFEAQKIEWHE
# Tests used:
# [1] = molecular target: T2, LA peptide (N-terminal leucine, penultimate alanine; rest of sequence not given); assay: stopped-flow, complex mixed with excess unlabelled trap peptide
# [2] = molecular target: FA peptide (N-terminal phenylalanine, penultimate alanine; rest of sequence not given); assay: as above
# [3] = molecular target: peptide containing N-terminal phospho-serine; assay: negative control, single-molecule, SH2 variant immobilized, labeled phospho-serine peptide in solution; top trace
# [4] = molecular target: fluorescently-labeled peptide containing N-terminal phospho-tyrosine; assay: single-molecule, SH2 variant immobilized in sample wells, labeled peptide in solution; bottom plot (bottom trace of FIG. 22A)
# [5] = molecular target: peptide containing N-terminal phospho-serine; assay: negative control, single-molecule, SH2 variant immobilized, labeled phospho-serine peptide in solution; bottom trace
# [6] = molecular target: fluorescently-labeled peptide containing N-terminal phospho-tyrosine; assay: single-molecule, SH2 variant immobilized in sample wells, labeled peptide in solution; top panel
# [7] = molecular target: fluorescently-labeled peptide containing N-terminal phospho-tyrosine; assay: single-molecule, SH2 variant immobilized in sample wells, labeled peptide in solution; bottom panel
# [8] = molecular target: fluorescently-labeled peptide containing N-terminal phospho-tyrosine; assay: single-molecule, SH2 variant immobilized in sample wells, labeled peptide in solution; middle plot (middle trace of FIG. 22A)
# [9] = molecular target: peptide containing N-terminal phospho-serine; assay: negative control, single-molecule, SH2 variant immobilized, labeled phospho-serine peptide in solution; middle trace
# [10] = molecular target: fluorescently-labeled peptide containing N-terminal phospho-tyrosine; assay: single-molecule, SH2 variant immobilized in sample wells, labeled peptide in solution; top plot (top trace of FIG. 22A)
# [11] = molecular target: T1, N-terminal leucine peptide …; assay: peptide-on-chip recognition assay, dye-labelled PS372
# [12] = molecular target: T2, LA peptide (N-terminal leucine, …); assay: binder-on-chip single-molecule assay
# [13] = molecular target: IR peptide (N-terminal IR; rest of sequence not given); assay: binder-on-chip, run 94158
# [14] = molecular target: IR peptide (N-terminal IR; rest of sequence not given); assay: binder-on-chip single-molecule assay
# [15] = molecular target: IA peptide (N-terminal isoleucine, penultimate alanine; rest of sequence not given); assay: binder-on-chip single-molecule assay
# [16] = molecular target: peptide having an N-terminal phenylalanine residue (rest of sequence not given)
# [17] = molecular target: polypeptide with a terminal leucine residue (rest of sequence not given)
# [18] = molecular target: peptide having an N-terminal (unmodified) tyrosine residue (rest of sequence not given)
# [19] = molecular target: peptide having an N-terminal tryptophan residue (rest of sequence not given)
binder,measurement,setting,value
B1,koff,[1],0.22 s⁻¹
B2,koff,[2],1.27 s⁻¹
B3,koff,[1],0.19 s⁻¹
B4,"pulse duration, M (median) of one trace",[3],0.09 s
same,"pulse duration, μ (mean) of one trace",[3],0.09 s
same,"pulse duration, M (median) of one trace",[4],0.17 s
same,"pulse duration, μ (mean) of one trace",[4],0.26 s
same,"pulse duration, M (median) of one trace",[5],0.1 s
same,"pulse duration, μ (mean) of one trace",[5],0.16 s
same,mean pulse duration (dashed line of the distribution),[6],0.26 s
same,mean interpulse duration (dashed line of the distribution),[7],0.51 s
same,"pulse duration, M (median) of one trace",[8],0.15 s
same,"pulse duration, μ (mean) of one trace",[8],0.23 s
same,"pulse duration, M (median) of one trace",[9],0.11 s
same,"pulse duration, μ (mean) of one trace",[9],0.15 s
same,"pulse duration, M (median) of one trace",[10],0.15 s
same,"pulse duration, μ (mean) of one trace",[10],0.25 s
B5,koff,[2],0.677 s⁻¹
B6,koff,[2],0.589 s⁻¹
B7,mean pulse width,[11],957 ms
same,mean pulse width,[12],876 ms
same,Median pulse width,[13],64 ms
same,mean pulse width,[13],86 ms
same,pulse duration,[14],83 ms
same,pulse duration,[15],70 ms
B8,koff,[2],0.767 s⁻¹
B9,mean pulse duration (dashed line of the distribution),[16],0.59 s
same,mean pulse duration (dashed line of the distribution),[17],0.31 s
same,mean pulse duration (dashed line of the distribution),[18],0.69 s
same,mean pulse duration (dashed line of the distribution),[19],0.34 s
B10,koff,[1],0.15 s⁻¹
